According to the supplement of paper PMC9170038:

Test system: MS2 coat protein
Assay: apparent KD of MS2 coat protein; designed switch direction (-1 OFF switch, 1 ON switch): -1; higher = weaker reporter binding
Procedure, shortened: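 Normalised cluster fluorescence was curve-fitted, and each design's median over clusters is its apparent KD. Before this, SNAP-549-labelled MS2 coat protein was titrated from 0.7 or 1.5 nM, doubling to 3 µM, over RNA switches transcribed on Illumina chips by stalled E. coli RNA polymerase. Titrations had no input, 200 uM small-molecule ligand, or an oligonucleotide input, and steps lasted 0.8–1.5 h (lowest) to 10–20 min (highest).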

[1] = input ligand: microRNA oligo, concentration not stated
[2] = Eterna round: R95, input ligand: FMN 200 uM
[3] = Eterna round: R95, input ligand: microRNA oligo, concentration not stated
[4] = Eterna round: R95, input ligand: none

Sequence	apparent KD of MS2 coat protein (input ligand: FMN 200 uM) [nM]	apparent KD of MS2 coat protein [1] [nM]	apparent KD of MS2 coat protein (input ligand: none) [nM]	apparent KD of MS2 coat protein [2] [nM]	apparent KD of MS2 coat protein [3] [nM]	apparent KD of MS2 coat protein [4] [nM]
GAACUGAGGCAAAGCUUUAGUCGUACAUGAGGAUCACCCAUGUAGGAUAUGGUAGGCAAAGCUUACCAGAAGGACAGAGUGAUC [Mat - Exclusion NG 3 - Mod of JL - D60] (Eterna round: R96, puzzle: Exclusion NG 3)	498	260	257			
CCAUCGAGUGUGAGGAUAUGCUGGUCAAUAGAUCAGCAGAAGGCACAUGAGGAUCACCCAUGUGGAGACGGUGG [Mat - Exclusion 4 - JL Mod - D79] (puzzle: Brourd's mod of Exclusion 4)				333	44.8	70.6
AAGAUGCGGGUAGGAUAUGGAGAGAAAGAAAGACCAGAAGGAUUGGUCAUAUAACAUGAGGAUCACCCAUGUAUAUGUUGCGAA [EX ng 1 5] (Eterna round: R96, puzzle: Exclusion NG 1)	19.6	16.2	21			
AAUUUACAUGAGGAUCACCCAUGUCAGGAUAUGGUUUUAUUUUUUUCUUUUCUUGAUUCCAGAAGGGACAGCUA (puzzle: Exclusion 1)					82.2	
UUAGAAAUGUUAGGAUAUUAAUAUUUUUUUAGUAUGAUCUACAUGAGGAUCACCCAUGUUAAAAUUAAGAAGGAACAUUUUAUU [JR_ExcNG2_Sub098] (Eterna round: R96, puzzle: Exclusion NG 2)		59.7				
UUUAAUUUUUUUUUUUUACAAGCUUUUUGCUCGUCUUAUACAUGAGGAUCACCCAUGUAGGUGAGAAGUAAAUUAUC [JMF 49] (puzzle: Sensor v3, turn-off variant 2)				19.3	168	23.3
AGAGUACUGCGAGGAUAUACAUGAGGAUCACCCAUGUAAAAGUGUGAGGCAAAGCCUCACACUAUGUAGAAGGCGCAGUACUCA [Mat - Exclusion NG 2 - Mod of JL - D12] (Eterna round: R96, puzzle: Exclusion NG 2)	19	9.76	18.2			
UCUGGUCGAGGAUAUACAUUCGUGCUUCGGCACGUAAGGUCACAUGAGGAUCACCCAUGUAGAAGGCGACCAGA [E2/7-A3] (Eterna round: R97, puzzle: Exclusion 2)	181		38.4			
UUAACAUGCUGGUGAUCAUACAUGAGGAUCACCCAUGUAACAAGCUUUUUGCUCGUCUUAUAAUUUAAGAUCACCAG [Stov1/7-A1] (Eterna round: R97, puzzle: Sensor, turn-off variant 1)	17		15.9			
GCCUAACAUGAGGAUCACCCAUGUAAGGAUAUGAUUAGUCGUUUGUAAGCAGCGCGACUCAGAAGGUACUUGGG [Eternabot (L1) Solution 34] (Eterna round: R97, puzzle: Exclusion 1)	72		25.4			
UUGAUACAUACCUCCAUAAACAUGAGGAUCACCCAUGUAAGUGAGGAUAUAGAUUGUUUAGUAUACUAGAAGGCACUUAGAUAU [JR_ExcNG3_Sub045] (Eterna round: R96, puzzle: Exclusion NG 3)		9.11				
CAAUUGGGAGGAUAUACAUGAGGAUCACCCAUGUCGAUCCCAGGUAAGUUAAUACUUCGUAGAAGGCCUAUCUC [Eternabot (L2) Solution 16] (Eterna round: R97, puzzle: Exclusion 3)	20.6		17.6			
AAUAAAACAUAGGAUAUCGAAUUUAUCAUUUAACGAGAAGGAUGAACAUGAGGAUCACCCAUGUGGUAUCAUGG [Mat - Exclusion 6 - JL Mod - D7] (puzzle: Exclusion 6)				168	244	216
UCGGCGCGAGGAUAUACGUUUGCGCGUUUUCGUUUUCGCGUACAUGAGGAUCACCCAUGUAGAAGGCGCGCCGC [Apr-15 SS2-15] (puzzle: Exclusion 2)					14	
CCGGCGUGGUGCGGUAGUUGUACGACAUGAGGAUCACCCAUGUAGGAUAUGCGCGUGGUCGCGCCGCAGAAGGACAACGUUUGG [Random, 20% A] (Eterna round: R96, puzzle: Exclusion NG 3)	19.6	14.6	23.9			
AAAAAUCGAGGAUAUACAUGAGGAUCACCCAUGUGGGACCAAGAAAACACAAAAGAAAGUAGAAGGCGAUAAAA [Ex 3 May 23] (Eterna round: R96, puzzle: Exclusion 3)	110	25.8	31.7			
GGCCCUAGGGUCAGACGCACAAGCUUUUUGCUCGUUUUAACAUGAGGAUCACCCAUGUCUAGUGGAUCUGAUCGGGU [Mausinonra] (Eterna round: R96, puzzle: Sensor v3, turn-off variant 2)	19.6	96.8	25.8			

Sequence	apparent KD of MS2 coat protein (input ligand: FMN 200 uM) [nM]	apparent KD of MS2 coat protein [1] [nM]	apparent KD of MS2 coat protein (input ligand: none) [nM]	apparent KD of MS2 coat protein [2] [nM]	apparent KD of MS2 coat protein [3] [nM]	apparent KD of MS2 coat protein [4] [nM]
CACCUGAAAGCAGGAUAUCUUACAUGAGGAUCACCCAUGUAAUAAAUGAGAAUUUCGAAUGUAAUAGAGAAGGGCUGAAAAGGC [Ostracism 86 - Jieux - Exclusion NG 2] (Eterna round: R96, puzzle: Exclusion NG 2)	47	37.7	40.3			
AGCUGUGGCCGAGGAUAUCUAUCCAAUAAAACCGAAAUAUAAUCGGACAUGAGGAUCACCCAUGUAGAGAAGGCGGUCUCAGCA [Eli eng2 - 094] (Eterna round: R96, puzzle: Exclusion NG 2)		16.4				
UUUUUGUCAGGAUAUGACUAGAUGCACGUUAGUGUGUUUACUUAGAAGGGACAUGAGGAUCACCCAUGUAUUCC [Bring Us a Shrubbery-14] (puzzle: Exclusion 4)					26.4	
UUUACAAGCUAAAGAUCCCACAUGAGGAUCACCCAUGUUGCUGCCGGUGACGGUAGCAUAACUUUUGCUCGUCUUAU [JL TOV1 3.59] (Eterna round: R97, puzzle: Sensor, turn-off variant 1)	278		342			
GGGCCCGGUGUGAGGAUAUCGGGCCCGAAAGGGUUUGAGAAGGCACAUGAGGAUCACCCAUGUAAGCCGGGCCC [-41.1, -39 kcal, A 23%, 5b-0] (Eterna round: R97, puzzle: Brourd's mod of Exclusion 4)	17.1		15.3			
GUGCCACAUGAGGAUCACCCAUGUGAGGAUAUGGCCUGUUUGGCGUGUGCUGGCUCUGUCAGAAGGCGCGUGGG [salish99_ex1_r4_037] (Eterna round: R97, puzzle: Exclusion 1)	39.1		26.8			
UUAAUUAAUUGCGCAAGAUCACAUGAGGAUCACCCAUGUAUAUAGGAUAUCAGCUCGUUUAGAGCUGAGAAGGAUAUACAGCGC [ExNG3/3-A2] (Eterna round: R96, puzzle: Exclusion NG 3)	1320	536	488			
UGGUGUGAAGGAUAUACAUGAGGAUCACCCAUGUAUGUGGUGUGUGUUGAGGUGGAGGGUAGAAGGUCAGGUGG [JR_Exclusion3_Sub014] (puzzle: Exclusion 3)					35.9	
GCACGAAGUGUAGGAUAUCUGUGCGAUUAGCUCAGAGAAGGACACAUGAGGAUCACCCAUGUUUUCCACGGAUAGCAAACGUGC [Eli exng1 - 059] (Eterna round: R96, puzzle: Exclusion NG 1)	21	14.4	19.6			
AAUUAUUUAUGAGGAUAUUGUGGUGAAACACCACAAGAAGGCAUGAUACACAUGAGGAUCACCCAUGUGAGCCUGAUGCUUAUG [Ex NG1 #54] (Eterna round: R96, puzzle: Exclusion NG 1)		13.7				
CAGCUGAAAGUCAGGAUAUCUAGAGCUUCGGCUCUAGAGAAGGGACAUGAGGAUCACCCAUGUCACUCCAGCUG [BmEx4/3-A1] (Eterna round: R97, puzzle: Brourd's mod of Exclusion 4)	18.9		18.2			
ACAUGAGGAUCACCCAUGUGACAACAAUGGCUGAUAUAGAAACAGGAUAUUCGUGAAUAUCUAACGAAGAAGGGUUAUGACUGG [Deportation 66 - Jieux - Exclusion NG 3] (Eterna round: R96, puzzle: Exclusion NG 3)	50.4	43.1	54.1			
AGCUGUGGCCGAGGAUAUGCUACUUCAAUAACCGAAAUAUAAUCGGACAUGAGGAUCACCCAUGUAGAGAAGGCGGUCUCAGCA [Eli eng2 - 085] (Eterna round: R96, puzzle: Exclusion NG 2)		10.3				
AAGUAUAGAGGAUAUAGUGAGUACUACAUGAGGAUCACCCAUGUUCUUCACAGCGUAUUUCUAGAAGGCUGUUAAA [EX-5 Malc#19] (puzzle: Exclusion 5)				29.6	26.5	26.4
AAAAUAAAAAUAAACAAGCACAUGAGGAUCACCCAUGUUCGUCUUAUAAAAAUAAAAAUAAAAAACAAAAAAUAAAA [Sensor V2: 48] (Eterna round: R96, puzzle: Sensor v2, turn-off variant)	19	29.6	20.6			
AAUUAUAGAGGAUAUACAGAUUAAUACAUGAGGAUCACCCAUGUUCUUCAAUGUAUAUAUGUAGAAGGCUAAGGAA [JR_Ex5_Sub091] (Eterna round: R97, puzzle: Exclusion 5)	181		238			
